Assay results from patent US20200255508A1.
Where a chain is given by its changes, count along the chain named. Read-outs that look alike come from different tables or passages of the source.

B1: E9-SE7 (antibody, V domains shown)
VH: EVQLVESGGGLVQPGGSLRLSCAVSGGSISSSSYYWGWIRQAPGKGLEWIGDIYYTGSTYYNPSLKSRVTISVDTSKNSFYLQMNSLRAEDTAVYYCAREDVILRGGSDYWGQGTLVTVSS
VL: EYVLTQSPDFQSVTPKEKVTITCSGQRLGDKYASWYQQKPDQSPKLVIYEDSKRPSGVPSRFSGSNSGDDATLTINSLEAEDAATYYCQAWDRDTGVFGQGTKVEIKR
B2: E9-SE8 (antibody, V domains shown)
VH: EVQLQESGPGLVKPGETLSLTCTVSGGSISSSSYYWGWIRQAPGKGLEWIGDIYYTGSTYYNPSLKSRVTISVDTSKNQFYLKLSSVRAEDTAVYYCAREDVILRGGSDYWGQGTLVTVSS
VL: B1 VL
B3: E9.1 (antibody, human IgG1, V domains shown)
VH: B2 VH with G15S, A42P, Y81S, R88T, E90A
VL: SYELTQPPSVSVSPGQTASITCSGQRLGDKYASWYQQKPGQSPVLVIYEDSKRPSGIPERFSGSNSGDTATLTISGTQPMDEADYYCQAWDRDTGVFGYGTRVTVLG
B4: A10 (antibody, IgG1, V domains shown)
VH: EVQLLESGGGLVKSGGSLRLSCAASGFTFRSHWMSWVRQAPGKGLEWVAIISYDGSNKYSADSVKGRFTISRDNSKNTLYLQLNSLRAEDTAVYYCAKAGGGNVGFDIWGQGTMVTVSS
VL: LPVLTQPPSVSVSPGQTASITCSADKLGTKYVSWYQQKPGQSPVLVIYQDAKRPSGIPERFSGSNSGNTATLTISGTQTMDEADYLCQSWDRSDVVFGGGTKVTVL
B5: E9-FR1 (antibody, V domains shown)
VH: EVQLVQSGTEVKKPGESLKISCKVSGGSISSSSYYWGWIRQMPGKGLEWIGDIYYTGSTYYNPSLKSQVTISVDTSFNTFFLQWSSLKASDTAMYYCAREDVILRGGSDYWGQGTMVTVSS
VL: EYVLTQSPATLSVSPGERATLSCSGQRLGDKYASWYQQKPGQSPRLVIYEDSKRPSDIPARFSGSNSGDEATLTISSLQSEDFAVYYCQAWDRDTGVFGQGTRLEIKR
B6: E9-FR2 (antibody, V domains shown)
VH: EVTLRESGPALVKPTQTLTLTCTVSGGSISSSSYYWGWIRQPPGKGLEWIGDIYYTGSTYYNPSLKSRVTISVDTSKNQFVLTMTNMDPVDTATYYCAREDVILRGGSDYWGQGTTVTVSS
VL: DYVLTQSPDSLAVSLGERATINCSGQRLGDKYASWYQQKPGQSPKLVIYEDSKRPSGIPDRFSGSNSGDDATLTISSLQAEDVAVYYCQAWDRDTGVFGGGTKVEIKR
B7: E9.4 (antibody, V domains shown)
VH: B2 VH with G15S, A42P, Y81S, R88T, E90A, E100Y, I103S, R105G, G107S, Y110H
VL: SYELTQPPSVSVSPGQTASITCSGQRLGDKYASWYQQKPGQSPVLVIYEDSKRPSGIPERFSGSNSGDTATLTISGTQPMDEADYYCQAWDRDTGVFGYGTKVTVL
B8: E9.11 (antibody, V domains shown)
VH: B2 VH with G15S, A42P, Y81S, R88T, E90A, D101A, I103P, R105G
VL: B7 VL
B9: E9.14 (antibody, V domains shown)
VH: B2 VH with G15S, S31N, S33R, Y35H, A42S, Y81S, R88T
VL: B7 VL
B10: E9.17 (antibody, V domains shown)
VH: B2 VH with G15S, A42P, Y81S, R88T, E90A, D101E, V102A, R105G
VL: B7 VL
B11: E9.18 (antibody, V domains shown)
VH: B2 VH with G15S, S33G, A42P, Y54N, T56A, Y81S, R88T, E90A
VL: B7 VL
B12: E9.19 (antibody, V domains shown)
VH: B2 VH with G15S, A42P, Y81S, R88T, E90A, E100F, I103S, R105G, Y110T
VL: B7 VL
B13: E9.22 (antibody, V domains shown)
VH: B2 VH with G15S, S31N, S33R, Y35H, A42P, S67G, Y81S, R88T, E90A
VL: B7 VL
B14: E9.48 (antibody, V domains shown)
VH: B2 VH with G15S, S33G, A42P, Y54N, T56R, Y81S, R88T, E90A
VL: B7 VL
B15: E9 (antibody, IgG1, V domains shown)
VH: B2 VH with G15S, A42P, Y81S, R88T, E90A
VL: B7 VL with K102R
B16: E9.65 (antibody, V domains shown)
VH: B2 VH with G15S, S30R, S31N, S33R, Y35H, A42P, S67G, Y81S, R88T, E90A
VL: B7 VL
B17: E9.66 (antibody, V domains shown)
VH: B2 VH with G15S, A42P, Y81S, R88T, E90A, D101G, I103P, R105G, S108A, Y110K
VL: B7 VL
B18: E9.71 (antibody, V domains shown)
VH: EVQLQESGPGLVKPSETLSLTCTVSGGSISSSSYYWGWIRQPPGKGLEWIGDIYYTGSTYYNPSLKSRVTISVDTSKNQFSLKLSSVTAADTAVYYCARQALAMGGGSDKWGQGTLVTVSS
VL: B7 VL
B19: E9.13 (antibody, V domains shown)
VH: B2 VH with G15S, A42P, Y81S, R88T, E90A
VL: B7 VL with Q25D, R26T, A32V, K52E, R92S, D93E, Y99S
B20: E9.16 (antibody, V domains shown)
VH: B2 VH with G15S, A42P, Y81S, R88T, E90A
VL: B7 VL with Q25E, A32V, S51F
B21: E9.38 (antibody, V domains shown)
VH: B2 VH with G15S, A42P, Y81S, R88T, E90A
VL: B7 VL with A32V, T94V, Y99S
B22: E9.2B (antibody, V domains shown)
VH: B18 VH with S33N, Y54N, T56N, S58N, Q100E, L102V, M104L, S108A, K110D
VL: B7 VL with Q25E, R26G, A32V, K52T, R92S, D93E, Y99S
B23: E9-SE1 (antibody, V domains shown)
VH: B1 VH
VL: B3 VL with S1L, E3V, P79T, Y86L, Y99G, R102K
B24: E9-SE2 (antibody, V domains shown)
VH: B1 VH
VL: B3 VL
B25: E9-SE3 (antibody, V domains shown)
VH: B2 VH
VL: B3 VL
B26: E9-SE4 (antibody, V domains shown)
VH: B2 VH with G15S, A42P, Y81S, R88T, E90A
VL: B3 VL with S1L, E3V, P79T, Y86L, Y99G, R102K
B27: E9-SE5 (antibody, V domains shown)
VH: B2 VH with G15S, A42P, Y81S, R88T, E90A
VL: B1 VL
B28: E9-SE6 (antibody, V domains shown)
VH: B2 VH
VL: B3 VL with S1L, E3V, P79T, Y86L, Y99G, R102K

Tests used:
[1] = molecular target: cynomolgus monkey DLL4 extracellular domain (cynomolgus monkey); assay: Biacore SPR
[2] = molecular target: cyno DLL4-his (cynomolgus monkey); assay: ELISA on DLL4-his
[3] = molecular target: cynomolgus monkey DLL4 extracellular domain (cynomolgus monkey); assay: Biacore SPR; remark: listed apart in the source
[4] = molecular target: cyno DLL4-his (cynomolgus monkey); assay: ELISA on DLL4-his; remark: listed apart in the source
[5] = molecular target: cynomolgus monkey DLL4 extracellular domain (cynomolgus monkey); assay: capture ELISA
[6] = molecular target: cynomolgus monkey DLL4 extracellular domain (cynomolgus monkey); assay: competition ELISA, competitor huNotch-1

Row | Binder | Kd [1] | EC50 [2] | Kd [3] | EC50 [4] | koff [1] | kon [1] | EC50 [5] | IC50 [6]
1 | B1 | 7530 pM | 120 pM |  |  |  |  |  | 
2 | B2 | 3410 pM | 140 pM |  |  |  |  |  | 
3 | B3 | 4080 pM | 240 pM | 470 pM | 35 pM |  |  |  | 
4 | B4 | 7800 pM |  |  |  | 0.00015 s⁻¹ | 19000 M⁻¹ s⁻¹ | 440 pM | 5100 pM
5 | B5 |  |  | 740 pM | 120 pM |  |  |  | 
6 | B6 |  |  | 300 pM | 120 pM |  |  |  | 
7 | B7 | 250 pM |  |  |  | 3.44e-05 s⁻¹ | 137000 M⁻¹ s⁻¹ |  | 
8 | B8 | 170 pM |  |  |  | 8.9e-06 s⁻¹ | 53100 M⁻¹ s⁻¹ |  | 
9 | B9 | 6750 pM |  |  |  | 0.000386 s⁻¹ | 57200 M⁻¹ s⁻¹ |  | 
10 | B10 | 160 pM |  |  |  | 1.23e-05 s⁻¹ | 75100 M⁻¹ s⁻¹ |  | 
11 | B11 | 1000 pM |  |  |  | 2.63e-05 s⁻¹ | 26300 M⁻¹ s⁻¹ |  | 
12 | B12 | 250 pM |  |  |  | 4.86e-05 s⁻¹ | 192000 M⁻¹ s⁻¹ | 460 pM | 1500 pM
13 | B13 | 6260 pM |  |  |  | 0.000352 s⁻¹ | 56200 M⁻¹ s⁻¹ |  | 
14 | B14 | 4710 pM |  |  |  | 7.91e-05 s⁻¹ | 16800 M⁻¹ s⁻¹ |  | 
15 | B15 | 4200 pM |  |  |  | 7.4e-05 s⁻¹ | 18000 M⁻¹ s⁻¹ | 400 pM | 2100 pM
16 | B16 | 12900 pM |  |  |  | 0.000414 s⁻¹ | 32100 M⁻¹ s⁻¹ |  | 
17 | B17 | 140 pM |  |  |  | 9.1e-06 s⁻¹ | 65500 M⁻¹ s⁻¹ |  | 
18 | B18 | 490 pM |  |  |  | 3.79e-05 s⁻¹ | 77500 M⁻¹ s⁻¹ | 440 pM | 2000 pM
19 | B19 | 630 pM |  |  |  | 4.95e-05 s⁻¹ | 79200 M⁻¹ s⁻¹ |  | 
20 | B20 | 1520 pM |  |  |  | 3.79e-05 s⁻¹ | 24900 M⁻¹ s⁻¹ |  | 
21 | B21 | 1440 pM |  |  |  | 3.47e-05 s⁻¹ | 24200 M⁻¹ s⁻¹ |  | 
22 | B22 |  |  |  |  |  |  | 450 pM | 2200 pM
23 | B23 | 5420 pM | 140 pM |  |  |  |  |  | 
24 | B24 | 3680 pM | 140 pM |  |  |  |  |  | 
25 | B25 | 3420 pM | 140 pM |  |  |  |  |  | 
26 | B26 | 3920 pM | 140 pM |  |  |  |  |  | 
27 | B27 | 6700 pM | 130 pM |  |  |  |  |  | 
28 | B28 | 6550 pM | 130 pM |  |  |  |  |  | 
